{"source": "patent US20220002397A1", "about": "(Hoffmann-La Roche, published 2022)", "key": {"[1]": {"target": "T1, VEGF-121-His (inhouse production) (human, UniProt P15692 207-395)", "T1 construct": "also called hVEGF-A121; VEGF-A121; not shown: His tag", "T1 sequence": "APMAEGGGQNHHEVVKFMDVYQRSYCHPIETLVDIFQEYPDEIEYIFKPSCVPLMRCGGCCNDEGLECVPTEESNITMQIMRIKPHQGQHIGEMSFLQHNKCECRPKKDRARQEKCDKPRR", "assay": "inhibition ELISA: antibody pre-incubated with 0.34 nM VEGF-121-His, binding to coated biotinylated VEGF-R1 detected", "description": "384 well streptavidin plates (Nunc/Microcoat #11974998001) were coated with 0.25 μg/mlbiotinylated VEGF-R1 or […] biotinylated VEGF-R2 (inhouse production, each 25 μl/well in DPBS (1×) (PAN, #PO4-36500)). Plates were incubated for 1 h at room temperature. […] This pre-incubation step was carried out in 384 well PP plates (Weidmann medical technology, #23490-101) in 1×OSEP buffer (bidest water, 10×, Roche, #11 666 789 001+0.5% Bovine Serum Albumin Fraction V, fatty acid free, Roche, #10 735 086 001+0.05% Tween 20). Plates were incubated for 1 h at room temperature. After washing VEGF-R1/VEGF-R2 coated streptavidin plates 3 times with 90 μl/well PBST-buffer (bidest water, 10×PBS Roche #11666789001+0.1% Tween 20), 25 μl of samples from the VEGF-antibody pre-incubation plate were transferred to coated strepavidin plates which were subsequently incubated for 1 h at room temperature. After washing 3 times with 90 μl/well PBST-buffer, 25 μl/well detection antibody (anti His POD, Bethyl, #A190-114P, 1:12000) in 1×OSEP was added. After incubation for 1 h at room temperature plates were washed 3 times with 90 μl PBST-buffer. 25 μl TMB (Roche, #11 835 033 001) was added to all wells simultaneously. After 10 min incubation at room temperature, signals were detected at 370 nm/492 nm on a Tecan Safire 2 Reader. […]"}, "[2]": {"target": "T1, VEGF-121-His (inhouse production)", "assay": "SPR (Biacore), hVEGF-A121 captured by anti-His antibody on C1 chip, Fab as analyte, 1:1 Langmuir model, 25 C; 25 C; Example 1", "description": "VEGF-binding of antibody VEGF-0089 Fab fragment was assessed by surface plasmon resonance (SPR) as described below.\n(§1) An anti-His capturing antibody (GE Healthcare 28995056) was immobilized to a Series S Sensor Chip C1 (GE Healthcare 29104990) using standard amine coupling chemistry resulting in a surface densitiy of 500-1000 resonance units (RU). As running and dilution buffer, HBS-P+(10 mM HEPES, 150 mM NaCl pH 7.4, 0.05% Surfactant P20) was used, the measurement temperature was set to 25° C. and 37° C., respectively. hVEGF-A121 was captured to the surface with resulting capture levels ranging from 5 to 35 RU. Dilution series of anti-VEGF antibodies (0.37-30 nM) were injected for 120 s, dissociation was monitored for at least 600 s at a flow rate of 30 μl/min. The surface was regenerated by injecting 10 mM Glycine pH 1.5 for 60 s. Bulk refractive index differences were corrected by subtracting blank injections and by subtracting the response obtained from the control flow cell without captured hVEGF-A121. Rate constants were calculated using the Langmuir 1:1 binding model within the Biacore Evaluation software."}, "[3]": {"target": "T1, VEGF-121-His (inhouse production)", "assay": "SPR, hVEGF-A121 captured by anti-His antibody, Fab as analyte, 37 C", "description": "as §1\n(§2) The affinity of the antibodies was determined by SPR using the same methods as described in Example 1."}, "[4]": {"target": "T1, VEGF-121-His (inhouse production)", "assay": "SPR, hVEGF-A121 captured by anti-His antibody, Fab as analyte, 25 C; 25 C; Table 3 (later example)", "description": "as §1, §2"}, "[5]": {"target": "T1, VEGF-121-His (inhouse production)", "assay": "SPR, hVEGF-A121 captured by anti-His antibody, Fab as analyte, 25 C", "description": "as §1, §2"}}}
{"binder": "VEGF-P1AD8674 Fab (Fab, V domains shown, Variant of VEGF-0089 with D72N, S74A, K75E (Kabat) in H-FR3) VH: EVQLVESGGGLVQPGGSLRLSCAASGFTFTNYAMTWVRQAPGKGLEWVSSIGNGGGIYTYYADSVKGRFTISRNNAENTLYLQMNSLRAEDTAVYYCAKGDNLFDSWGPGTLVTVSS VL: DIQMTQSPASLSASVGDRVTITCRASQSIYSSLNWYQQKPGKAPKLLIYASTLQSGVPSRFSGSASGTDFTLTISSLQPEDVATYYCQQYQNFPRTFGQGTKLEIKR", "values": [{"measurement": "binding result", "setting": "[1]", "result": "binds"}]}
{"binder": "VEGF-0089 Fab fragment (Fab, V domains shown, Parent antibody; also called antibody VEGF-0089) VH: EVQLVESGGGLVQPGGSLRLSCAASGFTFTNYAMTWVRQAPGKGLEWVSSIGNGGGIYTYYADSVKGRFTISRDNSKNTLYLQMNSLRAEDTAVYYCAKGDNLFDSWGPGTLVTVSS VL: DIQMTQSPASLSASVGDRVTITCRASQSIYSSLNWYQQKPGKAPKLLIYASTLQSGVPSRFSGSASGTDFTLTISSLQPEDVATYYCQQYQNFPRTFGQGTKLEIKR", "values": [{"measurement": "Kd", "setting": "[2]", "result": 0.134, "unit": "nM"}, {"measurement": "Kd", "setting": "[3]", "result": 0.11, "unit": "nM"}, {"measurement": "Kd", "setting": "[4]", "result": 0.143, "unit": "nM"}]}
{"binder": "VEGF-0112 Fab (Fab, V domains shown, Variant of VEGF-0089 with N52aS (Kabat) in H-CDR2) VH: EVQLVESGGGLVQPGGSLRLSCAASGFTFTNYAMTWVRQAPGKGLEWVSSIGSGGGIYTYYADSVKGRFTISRDNSKNTLYLQMNSLRAEDTAVYYCAKGDNLFDSWGPGTLVTVSS VL: DIQMTQSPASLSASVGDRVTITCRASQSIYSSLNWYQQKPGKAPKLLIYASTLQSGVPSRFSGSASGTDFTLTISSLQPEDVATYYCQQYQNFPRTFGQGTKLEIKR", "values": [{"measurement": "Kd", "setting": "[5]", "result": 0.074, "unit": "nM"}, {"measurement": "Kd", "setting": "[3]", "result": 0.085, "unit": "nM"}]}
